Measured values published in the supplement of paper PMC9170038.

Test system: MS2 coat protein
Test: apparent KD of MS2 coat protein; higher = weaker reporter binding
Settings: Eterna round: R107
Outline: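 Designed RNA switches were transcribed on-chip from Illumina sequencing clusters and titrated with SNAP-549-labelled MS2 coat protein in twofold steps from 0.7 or 1.5 nM up to 3 µM. Each step lasted 0.8–1.5 h at first and 10–20 min by the end, in 100 mM Tris-HCl pH 7.5, 80 mM KCl and 4 mM MgCl2, without or with constant ligand. Apparent KD is the median, for each design, of fits to normalised cluster binding curves.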

[1] = input ligand: theophylline 20 uM
[2] = input ligand: theophylline 2 mM
[3] = input ligand: tryptophan 2.4 mM

| Sequence | apparent KD of MS2 coat protein (input ligand: arginine 13.2 mM) [nM] | apparent KD of MS2 coat protein (input ligand: none) [nM] | apparent KD of MS2 coat protein [1] [nM] | apparent KD of MS2 coat protein [2] [nM] | apparent KD of MS2 coat protein [3] [nM] |
| --- | --- | --- | --- | --- | --- |
| UGACAUUGCUCAGAUACCAGACAUGAGCAUCAGCCAUGUGCCAACAAGUACAUAAUAAAAGUCCCUUGGCAGCUGAGCAAUGUCU [TheoBX 20 #MS2Left #AlternativeMS2 #Theo2] | 13.2 | 11.3 | 16.2 | 68.4 | 11.3 |
| AGCCGAACCACGGCCGCCACUGUAGACGUGACGAAAGUCGCGUCAACAUGAGGAUCACCCAUGUACAGGACCGGGUGGUCCGGCA [Omei Trp B SS A v2] | 9.09 | 8.68 | 11.2 | 8.09 | 6.75 |
| CACGAAAGAUCGGCCGCCACUAUUUGAUGUGUUCUUUCACAUGAGGAUCACCCAUGUUCUUAUUAUAGGACCGGGAUUGAGCGUG [ETB #3] | 73.9 | – | 141 | 190 | – |
| UGUAACAUGAGGAUCACCCAUGUAAGUGAUACCAGAUAAGUAGUAGUCCCUUGGCAGCAUAUUGGGAAAGUGUAUAGUCUAUAUU [Same State - Theophylline A (Freestyle 3)] | 43.6 | – | 74.9 | – | 51.1 |
| GCACAAGAUGGAAGGAGCGCUGGGAAAGGUCACAUGAGGAUCACCCAUGUUCUCCUUGCCGAGCAGGUAGGUCGCCAUCUUGUGC [SSAB NP+V+V2 #2] | 30.4 | 37.8 | 50 | 56.1 | 33.9 |
| AAUGGCGUUGGUGAGGCGGUUAAUGGCGAUACCAGCGUGGAAACACGCCCUUGGCAGCGCCAAAACAUGAGGAUCACCCAUGUUA [Olomouc] | 15.8 | – | 23.5 | – | 16.9 |
| GGUGGUGGGACGGAUACCAGCCACCGCGGCAACGCAACAUGAGGAUCACCCAUGUUGGGUGGCCCUUGGCAGCUGUCCUGCGGCG [#1 Same State - Theophylline B Attempt #25 (HarryS)] | 12.6 | – | 18.5 | – | 12.7 |
| GCGAUACGUACUGAUACCAGAGACAUGAGGAUCACCCAUGUCCCAUGAUCAUACCUCAGACUCCCUUGGCAGCAGGAUAAGUGAG [Exclusion Theophylline B GF2] | 11.3 | – | 15.1 | – | 12 |
| CCCAAAUAGAUCUUUGGAAUUUUACUCGAAGGAGCGUCAUAGUAGGCAGGUAGGUCGCGAGACAUGAGGAUCACCCAUGUAGAGA [kinmullin] | 18.7 | 53.7 | 35.5 | 45.8 | 32.4 |
| ACGCCCAGGUAGGCUUAAUGGGAAAUGGAAGGAGCGCUGAUGCAAGCAGGUAGGUCGCCAACGAACAUGAGGAUCACCCAUGUAA [Same State - Arginine A (Freestyle 2)] | 16.3 | 22.3 | 28.2 | 23.8 | 20.7 |
| GGAGGGACCAGAAGGAGCGACAUGAGGAUCACCCAUGUCUCCCGUUAUGGGAGUUCUUUAGGUCAGGUAGGUCGCUGGUCCCUCC [#1 Exclusion - Arginine B Attempt #6 (Inspired by Omei)] | 55.7 | 158 | 87.3 | 138 | 86.1 |
| AUUUACAUGGUCAUAUAUAUAUCGUCAGAUACCAGACUAGAUAUAGUCCCUUGGCAGCUGUUACAUGAGGAUCACCCAUGUUAUA [JR_Nu_ExcTheophyA_Sub019] | 41.8 | – | 95.8 | – | 109 |
| CGCACAUGAGGAUCACCCAUGUGAGGGCAUCGAGGACCGGUACGGCCGCCACUCGCAGGACAUGAGGAUCACCCAUGUGCCGCCG [SSTA DOUBLE!!! :-D #5] | 22.1 | 34.3 | 52.9 | 47.2 | 24.4 |
| GCACCAGGUACGGAUACCAGCUGCCAGAGAUACAUGAGGAUCACCCAUGUGACCUGAUUUAGCCCUUGGCAGCUGUACCUGGUGC [SSThB NP+V+V2 #2 Same Structure] | 178 | – | 472 | – | 680 |
| CGGUAGGUAGGUCGAUAUCUACCCGUAGAAGGAGCGUAAGAAAAUACAGGUAGGUCGCUACGGUACAUGAGCAUCAGCCAUGUCC [SSArg A #13 Alt-Ms2] | 10.5 | 11.7 | 15.2 | 11.7 | 13.1 |
| UAACAUGAGGAUCACCCAUGUUUAGAUGAACGAGGACCGGUACGGCCGCCACUCGAUAAGUGGAAGAAACGAGGGAUUGUAUGAU [Same State Trp A GF2] | 14.1 | 12.7 | 15.1 | 18.8 | 18.3 |
